Measurements: patent publication US20190330310A1 (VIB VZW, published 2019)

T1: unfused gp130 receptor fragment (pMG1) (human, UniProt P40189 760-918)
T1 construct: Negative control prey; also called empty prey
T1 sequence: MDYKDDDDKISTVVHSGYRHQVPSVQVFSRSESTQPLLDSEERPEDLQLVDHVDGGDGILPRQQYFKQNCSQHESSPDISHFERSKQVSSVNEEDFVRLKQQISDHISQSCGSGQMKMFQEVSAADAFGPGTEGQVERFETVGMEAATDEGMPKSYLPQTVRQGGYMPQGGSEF

B1: flag-tag-ERN1cyt-gp130 (other)
chain: MDYKDDDDKISEFFCPKDVLGHGAEGTIVYRGMFDNRDVAVKRILPECFSFADREVQLLRESDEHPNVIRYFCTEKDRQFQYIAIELCAATLQEYVEQKDFAHLGLEPITLLQQTTSGLAHLHSLNIVHRDLKPHNILISMPNAHGKIKAMISDFGLCKKLAVGRHSFSRRSGVPGTEGWIAPEMLSEDCKENPTYTVDIFSAGCVFYYVISEGSHPFGKSLQRQANILLGACSLDCLHPEKHEDVIARELIEKMIAMDPQKRPSAKHVLKHPFFWSLEKQLQFFQDVSDRIEKESLDGPIVKQLERGGRAVVKMDWRENITVPLQTDLRKFRTYKGGSVRDLLRAMRNKKHHYRELPAEVRETLGSLPDDFVCYFTSRFPHLLAHTYRAMELCSHERLFQPYYFHEPPEPQPPVTPDALPSRGSGGSGGSTVVHSGYRHQVPSVQVFSRSESTQPLLDSEERPEDLQLVDHVDGGDGILPRQQYFKQNCSQHESSPDISHFERSKQVSSVNEEDFVRLKQQISDHISQSCGSGQMKMFQEVSAADAFGPGTEGQVERFETVGMEAATDEGMPKSYLPQTVRQGGYMPQGGSELSTSLYKKAGYLPQTVRQGGYMPQ
notes: also called pMG2C-ERN1cyt; gp130 fusion containing only the cytoplasmic portion of ERN1
B2: ERN1-Tyk2(C)-HA (other)
chain: IFGSTSTVTLPETLLFVSTLDGSLHAVSKRTGSIKWTLKEDPVLQVPTHVEEPAFLPDPNDGSLYTLGSKNNEGLTKLPFTIPELVQASPCRSSDGILYMGKKQDIWYVIDLLTGEKQQTLSSAFADSLCPSTSLLYLGRTEYTITMYDTKTRELRWNATYFDYAASLPEDDVDYKMSHFVSNGDGLVVTVDSESGDVLWIQNYASPVVAFYVWQREGLRKVMHINVAVETLRYLTFMSGEVGRITKWKYPFPKETEAKSKLTPTLYVGKYSTSLYASPSMVHEGVAVVPRGSTLPLLEGPQTDGVTIGDKGECVITPSTDVKFDPGLKSKNKLNYLRNYWLLIGHHETPLSASTKMLERFPNNLPKHRENVIPADSEKKSFEEVINLVDQTSENAPTTVSRDVEEKPAHAPARPEAPVDSMLKDMATIILSTFLLIGWVAFIITYPLSMHQQQQLQHQQFQKELEKIQLLQQQQQQLPFHPPGDTAQDGELLDTSGPYSESSGTSSPSTSPRASNHSLCSGSSASKAGSSPSLEQDDGDEETSVVIVGKISFCPKDVLGHGAEGTIVYRGMFDNRDVAVKRILPECFSFADREVQLLRESDEHPNVIRYFCTEKDRQFQYIAIELCAATLQEYVEQKDFAHLGLEPITLLQQTTSGLAHLHSLNIVHRDLKPHNILISMPNAHGKIKAMISDFGLCKKLAVGRHSFSRRSGVPGTEGWIAPEMLSEDCKENPTYTVDIFSAGCVFYYVISEGSHPFGKSLQRQANILLGACSLDCLHPEKHEDVIARELIEKMIAMDPQKRPSAKHVLKHPFFWSLEKQLQFFQDVSDRIEKESLDGPIVKQLERGGRAVVKMDWRENITVPLQTDLRKFRTYKGGSVRDLLRAMRNKKHHYRELPAEVRETLGSLPDDFVCYFTSRFPHLLAHTYRAMELCSHERLFQPYYFHEPPEPQPPVTPDALAAAGGSITQLSHLGQGTRTNVYEGRLRVEGSGDPEEGKMDDEDPLVPGRDRGQELRVVLKVLDPSHHDIALAFYETASLMSQVSHTHLAFVHGVCVRGPENSMVTEYVEHGPLDVWLRRERGHVPMAWKMVVAQQLASALSYLENKNLVHGNVCGRNILLARLGLAEGTSPFIKLSDPGVGLGALSREERVERIPWLAPECLPGGANSLSTAMDKWGFGATLLEICFDGEAPLQSRSPSEKEHFYQRQHRLPEPSCPQLATLTSQCLTYEPTQRPSFRTILRDLTRVQPHNLADVLTVNRDSPAVGPTTFHKRYLKKIRDLGEGHFGKVSLYCYDPTNDGTGEMVAVKALKADCGPQHRSGWKQEIDILRTLYHEHIIKYKGCCEDQGEKSLQLVMEYVPLGSLRDYLPRHSIGLAQLLLFAQQICEGMAYLHAHDYIHRDLAARNVLLDNDRLVKIGDFGLAKAVPEGHEYYRVREDGDSPVFWYAPECLKEYKFYYASDVWSFGVTLYELLTHCDSSQSPPTKFLELIGIAQGQMTVLRLTELLERGERLPRPDKCPCEVYHLMKNCWETEASFRPTFENLIPILKTVHEKYQGQAPSVFSVCLEYPYDVPDYA
notes: Fusion protein expressed in transfected HEK293-T cells; also called ERN1-Tyk2-HA; ERN1-Tyk2(C) fusion construct
B3: flag tag-ERN1-gp130 (other)
chain: IFGSTSTVTLPETLLFVSTLDGSLHAVSKRTGSIKWTLKEDPVLQVPTHVEEPAFLPDPNDGSLYTLGSKNNEGLTKLPFTIPELVQASPCRSSDGILYMGKKQDIWYVIDLLTGEKQQTLSSAFADSLCPSTSLLYLGRTEYTITMYDTKTRELRWNATYFDYAASLPEDDVDYKMSHFVSNGDGLVVTVDSESGDVLWIQNYASPVVAFYVWQREGLRKVMHINVAVETLRYLTFMSGEVGRITKWKYPFPKETEAKSKLTPTLYVGKYSTSLYASPSMVHEGVAVVPRGSTLPLLEGPQTDGVTIGDKGECVITPSTDVKFDPGLKSKNKLNYLRNYWLLIGHHETPLSASTKMLERFPNNLPKHRENVIPADSEKKSFEEVINLVDQTSENAPTTVSRDVEEKPAHAPARPEAPVDSMLKDMATIILSTFLLIGWVAFIITYPLSMHQQQQLQHQQFQKELEKIQLLQQQQQQLPFHPPGDTAQDGELLDTSGPYSESSGTSSPSTSPRASNHSLCSGSSASKAGSSPSLEQDDGDEETSVVIVGKISFCPKDVLGHGAEGTIVYRGMFDNRDVAVKRILPECFSFADREVQLLRESDEHPNVIRYFCTEKDRQFQYIAIELCAATLQEYVEQKDFAHLGLEPITLLQQTTSGLAHLHSLNIVHRDLKPHNILISMPNAHGKIKAMISDFGLCKKLAVGRHSFSRRSGVPGTEGWIAPEMLSEDCKENPTYTVDIFSAGCVFYYVISEGSHPFGKSLQRQANILLGACSLDCLHPEKHEDVIARELIEKMIAMDPQKRPSAKHVLKHPFFWSLEKQLQFFQDVSDRIEKESLDGPIVKQLERGGRAVVKMDWRENITVPLQTDLRKFRTYKGGSVRDLLRAMRNKKHHYRELPAEVRETLGSLPDDFVCYFTSRFPHLLAHTYRAMELCSHERLFQPYYFHEPPEPQPPVTPDALSRGSGGSGGSTVVHSGYRHQVPSVQVFSRSESTQPLLDSEERPEDLQLVDHVDGGDGILPRQQYFKQNCSQHESSPDISHFERSKQVSSVNEEDFVRLKQQISDHISQSCGSGQMKMFQEVSAADAFGPGTEGQVERFETVGMEAATDEGMPKSYLPQTVRQGGYMPQGGSELSTSLYKKAGYLPQTVRQGGYMPQ
notes: Fusion protein expressed in transfected HEK293-T cells; also called ERN1-gp130 fusion construct; pMG2C-ERN1
B4: flag tag-gp130-VAMP1 (other)
chain: MDYKDDDDKISTVVHSGYRHQVPSVQVFSRSESTQPLLDSEERPEDLQLVDHVDGGDGILPRQQYFKQNCSQHESSPDISHFERSKQVSSVNEEDFVRLKQQISDHISQSCGSGQMKMFQEVSAADAFGPGTEGQVERFETVGMEAATDEGMPKSYLPQTVRQGGYMPQGGSELSTSLYKKVGMSAPAQPPAEGTEGTAPGGGPPGPPPNMTSNRRLQQTQAQVEEVVDIIRVNVDKVLERDQKLSELDDRADALQAGASQFESSAAKLKRKYWWKNCKMMIMLGAICAIIVVVIVSKYRCPTFLYKVV
notes: also called pMG1-VAMP1; VAMP1 gp130 fusion construct

Key:
[1] = target: B2; assay: luciferase reporter interaction assay in HEK293-T cells, tunicamycin 0-0.04-0.2-1-5 µg/ml
Method: After transfection, cells were treated with 0-0.04-0.2-1-5 μg/ml tunicamycin, final concentration. The luciferase data are presented as fold induction relative to the signal obtained in cells transfected with unfused gp130 (empty prey; transfection a) and treated with the same concentration tunicamycin. Expression of the different fusion proteins was confirmed using Western blot.

[2] = target: T1, unfused gp130 receptor fragment (pMG1); assay: luciferase reporter interaction assay in HEK293-T cells, tunicamycin 0-0.5-1-2 µg/ml
Method: In a first experiment, cells were transfected with the following combinations of plasmids (500 ng of the kinase fusion construct, 100 ng of the gp130 fusion construct and 50 ng of the luciferase reporter construct) according to the methods described above:
After transfection, cells were treated with 0-0.5-1-2 μg/ml tunicamycin, final concentration.

[3] = target: T2, ERN1(K599A)-Tyk2(C)-HA (human); assay: luciferase reporter interaction assay in HEK293-T cells, vehicle or 1 µg/ml tunicamycin
T2 construct: also called pcDNA5/FRT/TO-ERN1(K599A)-Tyk2(C)-HA
Method: (§1) After transfection, cells were either vehicle (DMSO) treated or treated with 1 μg/ml tunicamycin (final concentration).

[4] = target: T3, ERN1(D123P)-Tyk2(C)-HA (human); assay: as above
T3 construct: Mutation in the luminal domain of ERN1; also called pcDNA5/FRT/TO-ERN1(D123P)-Tyk2(C)-HA; ERN1(D123P)-Tyk2(K)-HA
Method: as §1

[5] = target: T4, HA-Tyk2(C)-SERT (human); assay: luciferase reporter interaction assay in HEK293-T cells
T4 construct: Fusion protein expressed in transfected HEK293-T cells; also called pSVSport-HA-Tyk2(C)-SERT; SERT kinase fusion construct

[6] = target: T5, HA-Tyk2(C)-RTp66 (HIV-1); assay: as above
T5 construct: also called pSVSport-HA-Tyk2(C)-RTp66; RTp66 kinase fusion construct

B1
binding result [1]: no binding

B2
binding result [2]: no binding

B3
binding result [3]: no binding | binding result [4]: no binding

B4
binding result [5]: binds | binding result [6]: no binding
